Results as given in the DeepSol protein solubility set.

Assay: soluble on expression in E. coli; label from the status in PepcDB or PDB records

| Sequence | soluble on expression in E. coli |
| --- | --- |
| MSLREINMLRNISSCLFPHISTITSPNHYLSEWDDWEKQGLPEEQRTEAVRRLRACLTSKGHKLDLRALALSSLPVLPACIKKLDVSCNKLTILTDLPENIKELIARDNFLTHISALPHYLITLDVSENQLENLPLLPDTIKSLSAEYNRLSTLPSLPLNLKKLEVRNNELQTLPSLPSNLKILKVAHNHLTELPPLPRRLQLLFAYSNRLSNLPNIQENIIMRRFFYFENNQITTIPTNLFRLDPHITIEIANNPLSDQTLLFLIQQTSVPNFNGPQFRISLSDEGHHHHHH | soluble |
| TMNNEMSDPQIEEFYTIVKELEKFDTFTNFLDVHQPELAIVFGRTKRRVDELTSALISKGYKAEGLHGDITQAKRLEVLKKFKNDQINILVATDVAARGLDISGVSHVYNFDIPQDTESYTHRIGRTGRAGKEGIAVTFVNPIEMDYIRQIEDANGRKMSALRPPHRKEVLQAREDDIKEKVENWMSKESESRLKRISTELLNEYNDVDLVAALLQELVEANDEVEVQLTFEKPLSRKGRNGKPSGSR | not soluble |
| MGSDKIHHHHHHMNIINFIKNYLSTPMSSLTFAPAHQLARMIRNREVSAVEVLNAYLAQIAKHNSKLNAICTLDEENAYLRARLADEALARGENWGALHGVPITIKDIFETAGLLTTAGYIPLKDYVPQQDATVVARLRTAGAVILGKTNMAELAGDYQSTNSLFPQVNNPWNLDYTAGGSSGGSAAAVAAGLSSLDLGNDIAGSVRQPAHFCGVYGLKPTDRRISTAGQIPEVPGMPVCLRQMMTVGCFARSLEDIRLCFSLIAGSDLRRPDVPPIPLDNPSGKSLQNLKIAWLDEWVEVPVASEIQVAMTAIAHTLTQAGVQIEPWLPKNFDLSKTLNLYGRMAAYINIYAQPVDRYNLHRSWQQIFRTATQGEKELRKLGDFSRLLPDLLNPRLKGYFEVLTERDCFTAQMDEALEPWDAWLTPVAATPAFTHRPAWSAIEIDGRPYPHAVANGAYTMPFNLSGHPAVVIPIGHTQDGLPIGMQVVGKRWREMELLAIAQELDKVINAFRSPFEII | not soluble |
| MTEPVHPIADLTDSLLGWASQTELELAQRLAGGGLVIAAGLSDDELERIERLYGIFLTRQLLAGADFAALIGVSPALTLTTLVARARRVVEIDDFVSEFLGGLGLATDESSVIDIDEATAAIMGAIPQSLARFELLGAQEATDALSAIVSLCTQAGIVNNEVPALLEYLDAVNAEGTVSSEDLVAAIAQQENLPLLATALQIAPAAITELIDGVAAVRQFAVDHHDSWFDRSREHLTPLLPRPIEFSVVSELRERPVGTVDREASVGVASREMRPRILFDADRSKVYLRLPEQRLPIADDGTRGEITWRVSIEGTTKIYHTGSPWGDTSGFAESLDVHIERPVRELTVQDETNEITWTVPVLAHDDPALVFSSRGTNVTDKVALHHQSLIVVTPQDVTLTDVVSGDDIVADSETAVEGWDKWVARYLDVSHVTSLSAVEPGKNANMETLRSIDPRQRVRFLAPSEPVDFLKTTGGLPVHSESLIAEFPPTPSGRTE | not soluble |
| MASYKQNLPPSALIKQQVNVADKKSKAEVQRDRQLEEDRKAGTAPAMVDVQTGRDINPHIPMFISQNPWYVPSEGPTLKHQRPHEEREKKMTQIHEWYQKGTTGKSATKFRKGACENCGAMGHQKRDCFDRPRKSNAKETNDNIAEDDYVQPNLTLGFDAKRDRWNGYDPSTHKQVIEDYEHLEEARKVVREHEMKEGEVEPATTEDGAPKDEDMYAEDADMAGVSVDMDSRTRITVRNLRIREDTAKYLYNLAENSPYYDPKSRSMRENPFAGVAGKELEAARFSGDNFVRYSGEVTAANEAQVFAWQATRGGVYAHSIAEPTKLEALKKEYEKEKSTLKNETQKELLDKYGGGEHMERPADELLLAQTESYIEYNRKGKVIKGKEKVAISSRFKEDIYPQNHTSVFGSFWREGRWGYKCCHQFVKNSYCTGKQGIEAETSAAKGTTTSNEEIFKVPKLVEKTEVKEEKEKEDSIKDEVAEENSDNDNDEEKEKVSEKSISPSPPSDDEEKEKEREKERLIEKERRERDQRRRDKKREKRERKKAKLGKRKRRHRDSDDESDPSSGSGSESDSDEEMRKAMKKAKREKAEGMKAAREGDRGRKYNTDYSNTAPNEKEMEAYRVTSVHSADPMAAYMNSKFEKKHTK | not soluble |
| MFRPILILTILSCVLAYHQYRELKCSTPTNSIRGGPDRAECHLVLKAEELETGRPVPTGLGCWQEDHDGEEREYCDIVCPKSHTVFISYIDQGHRACFNFITYQVEKRNDEHVLWRSGKCLNSTVNYRIGCKFDDPFETQFKSDNEIFAHLRARARRV | not soluble |
| MGSDKIHHHHHHLRSNRVTQHPPLQLSLPVHLPDDETFTSYYPAAGNDELIGALKSAASGDGVQAIYLWGPVKSGRTHLIHAACARANELERRSFYIPLGIHASISTALLEGLEQFDLICIDDVDAVAGHPLWEEAIFDLYNRVAEQKRGSLIVSASASPMEAGFVLPDLVSRMHWGLTYQLQPMMDDEKLAALQRRAAMRGLQLPEDVGRFLLNRMARDLRTLFDVLDRLDKASMVHQRKLTIPFVKEMLRL | not soluble |
| MGSDKIHHHHHHMFNESDAPQPPKVLSTPLEIAANLRQLQESHDPLIITFHDRSHRFQSYVVHVDRESNTLALDEMIPRDGEKFIENGEHFRVEGFHDGVRIAWECDHALKISEVDGHRCYSGPLPQEVTYHQRRNAFRAALKLSQLVDIILDGAHLKGNGAMRGKLLDISATGCKLRFEGNVEDRLQLGQVYERFKAGNPLGLVDTMVELRHLHYEERINTTFAGVRFHNLSGQAQRKIESFVYQLQREARRFDKDDY | not soluble |
| MSSSPTSSSSGSPSSHGHRSETEKQRRDDTNDLLNEFKKIVQKSESEKLSKEEVLFRIVKLLSGIQLHHESFSTSPGPIRSIKKIKSDREQVRRNKRVAAYRELRKFIALNNLSSSEEIDKMENLKVLEIIFEVIRGKSITCTVPCLPFPILPFLPVFPVYSPLVFNSYNQFSLYPPHMPTVQIPIVPSSSFEIDALEIEENEKDIDIVG | soluble |
| MTSDTFPQLPLSYWIESTQFPTFPRLSENIKTKVAIIGAGITGITTAYLLAKEGIDVVLIDSGRILNGTTGHTTAKVTAQHDLIYDELINHFGVEKARLYYESNNQALQFINKTVQTYKIDCNFSNEDSYLYTTTDNGLRNLSKEYEAYQKLNIPCDYVQSLSIPIPVQSALVMKNQAQFHPLLYLKTLLEKFVEMGGKVYEQTTAMDVEKGDYSQIITKEGHHITCEYVVSCSHFPFYDANSFFFTRMYAERSYALAIKAKTEYPGGMYLSIDDPKRSLRYITNNGEKLILIGGESHKTGQGINTMLHYEALYSFAEATFGIDEVSYRWSAQDLITLDKLPYIGHINERNPNIFVATGYRKWGMTTGTAAAHLLKDSILKVHSPYKELYAPSRFHANPDIKTFLSQNIDVAKHLIAGKIETALRKPEDLEVGEGSVVHVNGKRAGAYKDKEGKLHIVDTTCTHLGCEVEWNNGDCTWDCPCHGSRFSIEGDVLEGPADQPLKRVDNELEHHHHHH | soluble |
| MGHHHHHHSHKPIKVEKTVTINKPADELYRYWHNFENLPTFMKHLKSVKVYNEKRSHWIANAPLGNSVEWDADILEDRENEFISWASAEGADVENSGFVRFQKAPGDVPGQAASRLRGTEVKVVLEYNLPGGALAAVVAKLFGEEP | not soluble |
| MECPKEIVLLMHSYFDGDLQPEGEQQLKEHLRSCAACAAHFHELKKTVAFLQYAAHVAAPPSFAAKVMEAMPKERKTARLRRFMHRHPLLTAASLFLALTLGSLASSWGERGAFSVSADEHVIIRDHTVIVPKGETVKGDIVVRNGSIRIEGTVDGDVTVIHGKKYMASAGQVTGEVEEINQVFEWIWYNIKERFNRALQSIE | not soluble |
| MPSSTTVPTRRGLVSGPSSSDAHGDMPAVSVIMNCLNCERDLAEAIGSVFAQTFDDWEIVFWDNGSTDRSAEIAQGFGERVRYFRATETVPLGAARNLAIAKARGEFIAFLDCDDVWLPEKLERQVALFRANPRVGLVCTDTVMFTGAKDLNRLFEHAHPARGHVFRELMTTQWISMSSAVIRRNALDGMDHWFDESLNVCEEADVFYRIAWDWELDHVDAPLTRWRVHGANTTFRKFGQFAEETLRILDKHRAMYPGYDERYADLVALLRRRAAFQRAVALWREGRGAEARATIAPFDASPKFRLFRLATYLPGALFDPLARLYFALPAFLRRLEHHHHHH | not soluble |
| GSHMSPSDLHLPVPGHPIAAIATPVGVGALAIVRISGAGVLDLADRVFRKVHGSGKLAEAAGYTAHFGRLYDGEEMVDEVIALVFRAPRSFTAEQMVEFTCHGGPVVVGRVLRLMLDNGCRLAEPGEFTRRAFLNGRIDLLQAEAIGEMIHARTESAYRTAVSQMKGDLSVRLGGLREQLIRSCALIELELDFSEEDVEFQSRDELTMQIETLRSEVNRLIDSYQHGRIVSEGVSTVIAGKPNAGKSTLLNTLLGQERAIVSHMPGTTRDYIEECFIHDKTMFRLTDTAGLREAGEEIEHEGIRRSRMKMAEADLILYLLDLGTERLDDELTEIRELKAAHPAAKFLTVANKLDRAANADALIRAIADGTGTEVIGISALNGDGIDTLKQHMGDLVKNLDKLHEASVLVTSLRHYEALRNASDALQNALELIAHESETELIAFELRAALDYVGQITGKVVNEEVLNTIFDKFCIGK | soluble |
| MAHHHHHHMKKRTPLVGKRSYFTSLYDTKTEKTKLISEMDDLYDHILTSNWNDSVHLVLNVSIWEGILHSIEARIKPYEQDEDILKKKKMINEMFDVLFILEDLRDHVNELLEQSSRASGLAGTYILASFKIENMVEHIEFLKAKYDELLLKYPLYKYQIDMVLGKGLALLRQRYTFEWRHMHDFFF | not soluble |
| MGSDKIHHHHHHMPRGPTKKKTEDTTSQSLESKLWATADKLRGHLDAADYKHVVLGLIFLKYISDRFAQRHEEIIREEAGTYAAEDRDEYTAEGVFWVPASSRWAVVQTAAKQPDIGKRIDGAMTDIERENPHLKNILPKGYARPTLDQRRLGELVDLIGTIGLGTAEHQARDTLGRVYEYFLGRFASAEGKRGGEFYTPASVVRTLVTMLAPYKGRIYDPCCGSGGMFVQSEKFIEAHGGKVGDISVYGEESNPNTWKLALMNLAIRGIEADLGPEAADTFHKDLHPDLRADYILANPPFNISDWGGDLLRDDKRWQYGIPPTGNANFAWVQHMVHHLAPYGIAGFVLANGSMSSNTSGEGEIRKNLIEADLVDCMVAMPGQLFYSTQIPVCLWFLAKNRDDGRGMTGKELFERTGEVLFIDARNMGFMADRTHRELTDEDIQKIADTYHNWRGDGDGEYADIPGFCKAASLDDIRKNGHVLTPGRYVGAAAKDDDGEPFEEKMDRLTKELSAQLAEGRRLEDEMLKNFRVLGYEL | not soluble |
| MRLIHLSDIHAGKNLGRVSRNEDVVYALNQVVDFCKENKPDLVLVAGDVFDKANPDNEAKEIIFDFFLKLHSLNIPSVVISGNHDSYEFMKSLKKLLQVIDVYVVPKPNLEECVLDVKGLKIACLPYPSERVLTRAGEDSKLSYAVLVEKAIKYLYEKVKDAPLKVLLSHLFIAGSKYTRTEREATITDYYAVEPSAIPEGFDYVALGHVHRYQRIEKAPTHVYYTGSLFQLDFSEAGQEKFFNFVELKEGEPPHVEAIKLSLKNPLHTFEINQENYAKELEKIKDVQGYIKVHLIVKDKTKMHLVAEKVKEALGEKLIKLELLTPEEAIKKRLEEEREIQKLNLLDLYRDYFKESYGREVPQEIIKTVSQLLEQVHES | soluble |
| MAASASGKSKTSAGANRRRNRPSPRQRLLDSATNLFTTEGIRVIGIDRILREADVAKASLYSLFGSKDALVIAYLENLDQLWREAWRERTVGMKDPEDKIIAFFDQCIEEEPEKDFRGSHFQNAASEYPRPETDSEKGIVAAVLEHREWCHKTLTDLLTEKNGYPGTTQANQLLVFLDGGLAGSRLVHNISPLETARDLARQLLSAPPADYSI | soluble |
